Results from patent US20150344570A1 (published 2015).

Key:
[1] = target: T1, FcγRIIa R (FcγRIIa allotype with Arg at position 131), extracellular domain with C-terminal His tag (human, UniProt P12318 34-217); experiment: SPR (Biacore), antibody captured, FcγR analyte; vs GpH7-A5/GpH7-B3/GpL16-k0 = 100
T1 construct: extracellular domain; made in FreeStyle293 cells; analyte in the Biacore assay; also called FcγRIIa type R; 2aR
T1 sequence (looked up): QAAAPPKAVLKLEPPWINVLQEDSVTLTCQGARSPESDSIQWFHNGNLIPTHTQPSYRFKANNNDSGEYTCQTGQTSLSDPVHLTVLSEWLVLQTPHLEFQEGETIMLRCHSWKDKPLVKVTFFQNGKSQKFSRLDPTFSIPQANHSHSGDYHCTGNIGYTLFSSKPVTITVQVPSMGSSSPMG

[2] = target: T2, FcγRIIb, extracellular domain with C-terminal His tag (human, UniProt P31994 43-217); experiment: as above
T2 construct: extracellular domain; made in FreeStyle293 cells; analyte in the Biacore assay; also called 2b; FcgRIIb
T2 sequence (looked up): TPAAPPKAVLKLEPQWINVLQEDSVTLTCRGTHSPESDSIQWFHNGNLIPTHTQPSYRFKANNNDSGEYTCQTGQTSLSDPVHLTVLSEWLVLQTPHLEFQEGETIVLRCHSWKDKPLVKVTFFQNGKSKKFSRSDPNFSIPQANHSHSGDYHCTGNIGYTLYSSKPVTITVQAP

B1: GpH7-A5/GpH7-B3 variant Y296_09D/GpL16-k0 (antibody, human IgG1, kappa)
heavy 1: not shown
heavy 2: not shown
light: DIVMTQSPLSLPVTPGEPASISCQASESLVHSNRNTYLHWYLQKPGQSPQLLIYKVSNRFSGVPDRFSGSGSGTDFTLKISRVEAEDVGVYYCSQNTHVPPTFGQGTKVEIERTVAAPSVFIFPPSDEQLKSGTASVVCLLNNFYPREAKVQWKVDNALQSGNSQESVTEQDSKDSTYSLSSTLTLSKADYEKHKVYACEVTHQGLSSPVTKSFNRGEC
notes: heterodimerized IgG1, mutation in one H chain only; also called He Ab
B1 was tested, and the He/Con_2aR [1] was 106 relative (HeCon Ab = 100) and the He/Con_2b [2] was 98.9 relative (HeCon Ab = 100).

B2: GpH7-A5/GpH7-B3 variant Y296_10E/GpL16-k0 (antibody, human IgG1, kappa)
heavy 1: not shown
heavy 2: not shown
light: DIVMTQSPLSLPVTPGEPASISCQASESLVHSNRNTYLHWYLQKPGQSPQLLIYKVSNRFSGVPDRFSGSGSGTDFTLKISRVEAEDVGVYYCSQNTHVPPTFGQGTKVEIERTVAAPSVFIFPPSDEQLKSGTASVVCLLNNFYPREAKVQWKVDNALQSGNSQESVTEQDSKDSTYSLSSTLTLSKADYEKHKVYACEVTHQGLSSPVTKSFNRGEC
notes: as for B1
For B2, the He/Con_2aR [1] was 103 relative (HeCon Ab = 100) and the He/Con_2b [2] was 98 relative (HeCon Ab = 100).

B3: GpH7-A5/GpH7-B3 variant Y296_13S/GpL16-k0 (antibody, human IgG1, kappa)
heavy 1: not shown
heavy 2: not shown
light: DIVMTQSPLSLPVTPGEPASISCQASESLVHSNRNTYLHWYLQKPGQSPQLLIYKVSNRFSGVPDRFSGSGSGTDFTLKISRVEAEDVGVYYCSQNTHVPPTFGQGTKVEIERTVAAPSVFIFPPSDEQLKSGTASVVCLLNNFYPREAKVQWKVDNALQSGNSQESVTEQDSKDSTYSLSSTLTLSKADYEKHKVYACEVTHQGLSSPVTKSFNRGEC
notes: as for B1
For B3, the He/Con_2aR [1] was 102 relative (HeCon Ab = 100) and the He/Con_2b [2] was 86.3 relative (HeCon Ab = 100).

B4: GpH7-A5/GpH7-B3 variant Y296_14T/GpL16-k0 (antibody, human IgG1, kappa)
heavy 1: not shown
heavy 2: not shown
light: DIVMTQSPLSLPVTPGEPASISCQASESLVHSNRNTYLHWYLQKPGQSPQLLIYKVSNRFSGVPDRFSGSGSGTDFTLKISRVEAEDVGVYYCSQNTHVPPTFGQGTKVEIERTVAAPSVFIFPPSDEQLKSGTASVVCLLNNFYPREAKVQWKVDNALQSGNSQESVTEQDSKDSTYSLSSTLTLSKADYEKHKVYACEVTHQGLSSPVTKSFNRGEC
notes: as for B1
For B4, the He/Con_2aR [1] was 103 relative (HeCon Ab = 100) and the He/Con_2b [2] was 88.2 relative (HeCon Ab = 100).

B5: GpH7-A5/GpH7-B3 variant Y296_16H/GpL16-k0 (antibody, human IgG1, kappa)
heavy 1: not shown
heavy 2: not shown
light: DIVMTQSPLSLPVTPGEPASISCQASESLVHSNRNTYLHWYLQKPGQSPQLLIYKVSNRFSGVPDRFSGSGSGTDFTLKISRVEAEDVGVYYCSQNTHVPPTFGQGTKVEIERTVAAPSVFIFPPSDEQLKSGTASVVCLLNNFYPREAKVQWKVDNALQSGNSQESVTEQDSKDSTYSLSSTLTLSKADYEKHKVYACEVTHQGLSSPVTKSFNRGEC
notes: as for B1
B5 was tested, and the He/Con_2aR [1] was 105 relative (HeCon Ab = 100) and the He/Con_2b [2] was 92.2 relative (HeCon Ab = 100).

B6: GpH7-A5/GpH7-B3 variant Y296_18N/GpL16-k0 (antibody, human IgG1, kappa)
heavy 1: not shown
heavy 2: not shown
light: DIVMTQSPLSLPVTPGEPASISCQASESLVHSNRNTYLHWYLQKPGQSPQLLIYKVSNRFSGVPDRFSGSGSGTDFTLKISRVEAEDVGVYYCSQNTHVPPTFGQGTKVEIERTVAAPSVFIFPPSDEQLKSGTASVVCLLNNFYPREAKVQWKVDNALQSGNSQESVTEQDSKDSTYSLSSTLTLSKADYEKHKVYACEVTHQGLSSPVTKSFNRGEC
notes: as for B1
With B6 the He/Con_2aR [1] was 104 relative (HeCon Ab = 100) and the He/Con_2b [2] was 91.5 relative (HeCon Ab = 100).

B7: GpH7-A5/GpH7-B3 variant Y296_19Q/GpL16-k0 (antibody, human IgG1, kappa)
heavy 1: not shown
heavy 2: not shown
light: DIVMTQSPLSLPVTPGEPASISCQASESLVHSNRNTYLHWYLQKPGQSPQLLIYKVSNRFSGVPDRFSGSGSGTDFTLKISRVEAEDVGVYYCSQNTHVPPTFGQGTKVEIERTVAAPSVFIFPPSDEQLKSGTASVVCLLNNFYPREAKVQWKVDNALQSGNSQESVTEQDSKDSTYSLSSTLTLSKADYEKHKVYACEVTHQGLSSPVTKSFNRGEC
notes: as for B1
B7 was tested, and the He/Con_2aR [1] was 102 relative (HeCon Ab = 100) and the He/Con_2b [2] was 89.3 relative (HeCon Ab = 100).

B8: GpH7-A5/GpH7-B3 variant Y300_04F/GpL16-k0 (antibody, human IgG1, kappa)
heavy 1: not shown
heavy 2: not shown
light: DIVMTQSPLSLPVTPGEPASISCQASESLVHSNRNTYLHWYLQKPGQSPQLLIYKVSNRFSGVPDRFSGSGSGTDFTLKISRVEAEDVGVYYCSQNTHVPPTFGQGTKVEIERTVAAPSVFIFPPSDEQLKSGTASVVCLLNNFYPREAKVQWKVDNALQSGNSQESVTEQDSKDSTYSLSSTLTLSKADYEKHKVYACEVTHQGLSSPVTKSFNRGEC
notes: as for B1
B8 was tested, and the He/Con_2aR [1] was 108 relative (HeCon Ab = 100) and the He/Con_2b [2] was 94.8 relative (HeCon Ab = 100).
